The target of experiment [1] is T1, human CD3epsilonAA1-27.Fc (human).
T1 construct: also called recombinant human CD3epsilon N-terminal peptide (aa1-27.Fc fusion); CD3epsilon N-terminal amino acid 1-27 peptide Fc fusion
The experiment is described as follows: ELISA, immobilised antigen, His6-tagged Fab, anti-His6 antibody HRP conjugate, ABTS, OD405. On the technique in general: In an ELISA, binding on a coated surface is turned into a signal by an enzyme label.
Protocol: (§1) Humanized Fab proteins are his6 tagged at the C-terminus of Fd and the Fabs bound to the 96-well plate immobilized antigens were detected using anti his6 tag mouse antibody conjugated with HRP. ABTS was used as substrate and absorptions were measured at 405 nm.
(§2) MAXISORP® plates were used for ELISA binding assays. 50 μl of 1 μg/ml of antigens in 50 mM NaHCO₃were used to coat the plates at 4° C. overnight followed by incubation with 200 μl of 5% dry milk/TBS-0.05% TWEEN®-20 (i.e., polysorbate 20) (MTBS-T)/well. Antibodies were usually diluted in 5% MTBS-T and transferred to antigen coated plates and incubated for 1 hr with gentle shaking at room temperature. Bound antibodies were detected either by streptavidin-HRP (for detecting biotinylated antibodies) or anti-his tag-HRP conjugate (for his tagged antibodies). ABTS™ (i.e., 2,2′-azino-bis(3-ethylbenzothiazoline-6-sulphonic acid) solution in 50 mM citrate buffer was used for detection with OD405 measurement on using a microplate reader (Biotek).

The target in experiment [2] is T2, recombinant human CD3epsilon/delta Fc(K-H) heterodimer (human).
T2 construct: also called human CD3epsilon/delta knob and hole Fc heterodimer; copies: 1 + 1
Described as above.
Protocol: as §1, §2

In experiment [3] the target is T3, recombinant cyno CD3epsilon/delta Fc(K-H) heterodimer (cynomolgus).
T3 construct: also called cynomolgus CD3epsilon/delta; recombinant cyno CD3epsilon/delta heterodimeric Fc protein; copies: 1 + 1
The experiment is described as follows: ELISA, immobilised antigen, His6-tagged Fab, anti-His6 antibody HRP conjugate, ABTS, OD405 [continued) E].
Protocol: as §1, §2

The target in experiment [4] is T2, recombinant human CD3epsilon/delta …. As to the kind of experiment: ELISA, immobilised antigen, His6-tagged Fab, anti-His6 antibody HRP conjugate, ABTS, OD405. This is another data set of the same source.
Protocol: as §1, §2
Experiment [5] deals with T3, recombinant cyno CD3epsilon/delta …. The experiment is described as follows: ELISA, immobilised antigen, His6-tagged Fab, anti-His6 antibody HRP conjugate, ABTS, OD405 [continued) F].
Protocol: as §1, §2
The target in experiment [6] is T1, human CD3epsilonAA1-27.Fc. As to the kind of experiment: ELISA, immobilised antigen, His6-tagged Fab, anti-His6 antibody HRP conjugate, ABTS, OD405. The source holds these as a separate data set.
Protocol: as §1, §2
Experiment [7] concerns the target T4, full length human EpCAM on CHO cells (human, UniProt P16422 24-314).
T4 construct: CHO cells stably expressing full length human EpCAM; also called hu-EpCAM-FL; human EpCAM-FL
T4 sequence: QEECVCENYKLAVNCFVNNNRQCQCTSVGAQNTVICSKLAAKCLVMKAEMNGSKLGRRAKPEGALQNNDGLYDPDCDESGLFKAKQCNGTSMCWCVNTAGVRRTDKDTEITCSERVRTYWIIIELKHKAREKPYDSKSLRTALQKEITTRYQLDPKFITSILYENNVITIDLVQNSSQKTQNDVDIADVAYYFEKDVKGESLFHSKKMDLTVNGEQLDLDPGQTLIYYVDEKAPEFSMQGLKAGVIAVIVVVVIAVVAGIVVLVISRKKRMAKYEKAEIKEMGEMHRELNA
As to the kind of experiment: flow cytometry on CHO cells stably expressing full length human EpCAM, PE detection.
Protocol: In general, cells were blocked in 1% BSA/PBS for 1 hr at 4 C and antibodies of interest were diluted into 1% BSA/PBS were added to blocked cells for incubation at 4° C. for 1 hr. after one wash with 1% BSA/PBS, staining procedures vary depending on the availability of antibodies or fluorescent antibody conjugate. In some case, direct fluorescence conjugates were used. In other cases, anti affinity tag antibodies (secondary antibody) were used to incubate with the cells followed by anti-species antibody conjugated with a particular fluorophore. In some other experiments, antibody (or other affinity reagent such as streptavidin) with fluorescence conjugate was used directly as secondary antibody (secondary reagent).

Like-named read-outs stand apart in the source and are kept apart here.

T2 sequence (chain, as listed by the source mutant limits assumed, chain 1 of 2): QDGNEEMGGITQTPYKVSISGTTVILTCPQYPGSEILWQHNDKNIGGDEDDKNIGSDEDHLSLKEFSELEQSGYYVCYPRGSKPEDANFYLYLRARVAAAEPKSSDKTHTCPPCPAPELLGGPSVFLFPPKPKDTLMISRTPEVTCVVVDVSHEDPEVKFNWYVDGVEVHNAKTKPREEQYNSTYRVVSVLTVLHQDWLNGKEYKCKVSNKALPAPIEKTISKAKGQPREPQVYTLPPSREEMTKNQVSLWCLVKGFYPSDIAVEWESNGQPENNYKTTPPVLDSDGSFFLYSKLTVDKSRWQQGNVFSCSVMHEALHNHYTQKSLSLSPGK
T2 sequence (chain, as listed by the source mutant limits assumed, chain 2 of 2): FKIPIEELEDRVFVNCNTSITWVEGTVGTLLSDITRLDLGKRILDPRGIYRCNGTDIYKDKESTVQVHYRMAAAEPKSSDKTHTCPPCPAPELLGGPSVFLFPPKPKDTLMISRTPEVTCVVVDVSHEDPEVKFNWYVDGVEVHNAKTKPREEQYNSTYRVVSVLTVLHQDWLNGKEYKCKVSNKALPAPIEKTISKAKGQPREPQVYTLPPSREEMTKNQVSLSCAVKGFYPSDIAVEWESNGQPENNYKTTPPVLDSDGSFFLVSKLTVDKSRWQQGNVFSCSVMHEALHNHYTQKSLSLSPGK

B1: hu-1F3.3 Fab (Fab, V domains shown)
VH: EVQLVESGGGLVQPGGSLRLSCAASGFTFSTYAMNWVRQAPGKGLEWVARIRSKYNNYATYYADSVKDRFTISRDDSKNTLYLQMNSLRAEDTAVYYCARHGNFGNSYVSWFAYWGQGTMVTVSS
VL: QAVVTQEPSLTVSPGGTVTLTCRSSTGAVTTSNYANWVQQKPGQAPRGLIGGTNKRAPGTPARFSGSLLGGKAALTLSGVQPEDEAEYYCALWYSNLWVFGGGTKLTVL
notes: His6 tag at the C-terminus of the Fd
For the molecule B1, the binding result in experiment [1], in experiment [2] and in experiment [3] was “binds” each time.

B2: hu-1F3.8 Fab (Fab, V domains shown)
VH: EVQLVESGGGLVQPGGSLRLSCAASGFTFSTYAMNWVRQAPGKGLEWVARIRSKYNNYATYYADSVKDRFTISRDDSKNTLYLQMNSLRAEDTAVYYCARHGNFGNSYVSWFAYWGQGTMVTVSS
VL: QAVVTQEPSLTVSPGGTVTLTCRSSTGAVTTSNYANWFQQKPGQAPRGLIGGTNKRAPGTPARFSGSLLGGKAALTLSGVQPEDEAEYYCALWYSNLWVFGGGTKLTVLG
notes: as for B1
With B2, the binding result in experiment [4], in experiment [5] and in experiment [6] was “binds” in each case.

B3: hu-1F3.6 Fab (Fab, V domains shown)
VH: EVQLVESGGGLVQPGGSLRLSCAASGFTFSTYAMNWVRQAPGKGLEWVSRIRSKYNNYATYYADSVKDRFTISRDDSKNTLYLQMNSLRAEDTAVYYCARHGNFGNSYVSWFAYWGQGTMVTVSS
VL: QAVVTQEPSLTVSPGGTVTLTCRSSTGAVTTSNYANWFQQKPGQAPRGLIGGTNKRAPGTPARFSGSLLGGKAALTLSGVQPEDEAEYYCALWYSNLWVFGGGTKLTVLG
notes: as for B1
Take B3: the binding result in experiment [4], in experiment [5] and in experiment [6] was “binds” in each case.

B4: hu-1F3.1 Fab (Fab, V domains shown)
VH: EVQLVESGGGLVQPGGSLRLSCAASGFTFSTYAMNWVRQAPGKGLEWVSRIRSKYNNYATYYADSVKDRFTISRDDSKNTLYLQMNSLRAEDTAVYYCARHGNFGNSYVSWFAYWGQGTMVTVSS
VL: QAVVTQEPSLTVSPGGTVTLTCRSSTGAVTTSNYANWVQQKPGQAPRGLIGGTNKRAPGTPARFSGSLLGGKAALTLSGVQPEDEAEYYCALWYSNLWVFGGGTKLTVL
notes: His6 tag at the C-terminus of the Fd; No entry is named hu-1F3-1LC; also called hu-1F3 Fab; humanized anti CD3 antibody Fab, hu-1F3
In the case of B4, the binding result in experiment [7] is listed as “no binding”; in experiment [1], “binds”; in experiment [2], “binds”; in experiment [3], “binds”.

B5: hu-1F3.2 Fab (Fab, V domains shown)
VH: EVQLVESGGGLVQPGGSLRLSCAASGFTFNTYAMNWVRQAPGKGLEWVSRIRSKYNNYATYYADSVKDRFTISRDDSKNTLYLQMNSLRAEDTAVYYCARHGNFGNSYVSWFAYWGQGTMVTVSS
VL: QAVVTQEPSLTVSPGGTVTLTCRSSTGAVTTSNYANWVQQKPGQAPRGLIGGTNKRAPGTPARFSGSLLGGKAALTLSGVQPEDEAEYYCALWYSNLWVFGGGTKLTVL
notes: as for B1
In the case of B5, the binding result in experiment [1], in experiment [2] and in experiment [3] was “binds” in each case.

B6: hu-1F3.7 Fab (Fab, V domains shown)
VH: EVQLVESGGGLVQPGGSLRLSCAASGFTFNTYAMNWVRQAPGKGLEWVSRIRSKYNNYATYYADSVKDRFTISRDDSKNTLYLQMNSLRAEDTAVYYCARHGNFGNSYVSWFAYWGQGTMVTVSS
VL: QAVVTQEPSLTVSPGGTVTLTCRSSTGAVTTSNYANWFQQKPGQAPRGLIGGTNKRAPGTPARFSGSLLGGKAALTLSGVQPEDEAEYYCALWYSNLWVFGGGTKLTVLG
notes: as for B1
For B6, the binding result in experiment [4], in experiment [5] and in experiment [6] was “binds” throughout.

B7: hu-1F3.10 Fab (Fab, V domains shown)
VH: EVQLVESGGGLVQPGGSLRLSCAASGFTFNTYAMNWVRQAPGKGLEWVARIRSKYNNYATYYADSVKDRFTISRDDSKNTLYLQMNSLRAEDTAVYYCVRHGNFGNSYVSWFAYWGQGTMVTVSS
VL: QAVVTQEPSLTVSPGGTVTLTCRSSTGAVTTSNYANWFQQKPGQAPRGLIGGTNKRAPGTPARFSGSLLGGKAALTLSGVQPEDEAEYYCALWYSNLWVFGGGTKLTVLG
notes: as for B1
Turning to B7, the binding result in experiment [4], in experiment [5] and in experiment [6] was “binds” in each case.

B8: hu-1F3.9 Fab (Fab, V domains shown)
VH: EVQLVESGGGLVQPGGSLRLSCAASGFTFSTYAMNWVRQAPGKGLEWVARIRSKYNNYATYYADSVKDRFTISRDDSKNTLYLQMNSLRAEDTAVYYCVRHGNFGNSYVSWFAYWGQGTMVTVSS
VL: QAVVTQEPSLTVSPGGTVTLTCRSSTGAVTTSNYANWFQQKPGQAPRGLIGGTNKRAPGTPARFSGSLLGGKAALTLSGVQPEDEAEYYCALWYSNLWVFGGGTKLTVLG
notes: as for B1
As for B8, the binding result in experiment [4], in experiment [5] and in experiment [6] was “binds” each time.

B9: hu-1F3.5 Fab (Fab, V domains shown)
VH: EVQLVESGGGLVQPGGSLRLSCAASGFTFNTYAMNWVRQAPGKGLEWVARIRSKYNNYATYYADSVKDRFTISRDDSKNTLYLQMNSLRAEDTAVYYCVRHGNFGNSYVSWFAYWGQGTMVTVSS
VL: QAVVTQEPSLTVSPGGTVTLTCRSSTGAVTTSNYANWVQQKPGQAPRGLIGGTNKRAPGTPARFSGSLLGGKAALTLSGVQPEDEAEYYCALWYSNLWVFGGGTKLTVL
notes: His6 tag at the C-terminus of the Fd; also called huIF3.5
For the molecule B9, the “EC50 (read off the curve)” value in experiment [1] is ~2 nM; in experiment [2], ~3 nM; in experiment [3], ~2 nM.

B10: hu-1F3.4 Fab (Fab, V domains shown)
VH: EVQLVESGGGLVQPGGSLRLSCAASGFTFSTYAMNWVRQAPGKGLEWVARIRSKYNNYATYYADSVKDRFTISRDDSKNTLYLQMNSLRAEDTAVYYCVRHGNFGNSYVSWFAYWGQGTMVTVSS
VL: QAVVTQEPSLTVSPGGTVTLTCRSSTGAVTTSNYANWVQQKPGQAPRGLIGGTNKRAPGTPARFSGSLLGGKAALTLSGVQPEDEAEYYCALWYSNLWVFGGGTKLTVL
notes: as for B1
Take B10: in experiment [1], the binding result is reported as “binds”.

Broadly, the EC50 (read off the curve) is the concentration at which the effect is half-maximal.

These data come from US20210393776A1 (FABION PHARMACEUTICALS, published 2021).
